Assays:
[1] = biological target: T1, human inducible phospho-fructokinase bisphosphatase isoform 3, PFKFB3 (human), Q16875; assay: MST; compound in MST buffer mixed 1:1 with 100 nM RED-NHS labeled recombinant PFKFB3, incubated 20 min at room temperature; Nanotemper
[2] = biological target: T1, human inducible phospho-fructokinase …

T1 sequence (Q16875 whole entry, canonical isoform): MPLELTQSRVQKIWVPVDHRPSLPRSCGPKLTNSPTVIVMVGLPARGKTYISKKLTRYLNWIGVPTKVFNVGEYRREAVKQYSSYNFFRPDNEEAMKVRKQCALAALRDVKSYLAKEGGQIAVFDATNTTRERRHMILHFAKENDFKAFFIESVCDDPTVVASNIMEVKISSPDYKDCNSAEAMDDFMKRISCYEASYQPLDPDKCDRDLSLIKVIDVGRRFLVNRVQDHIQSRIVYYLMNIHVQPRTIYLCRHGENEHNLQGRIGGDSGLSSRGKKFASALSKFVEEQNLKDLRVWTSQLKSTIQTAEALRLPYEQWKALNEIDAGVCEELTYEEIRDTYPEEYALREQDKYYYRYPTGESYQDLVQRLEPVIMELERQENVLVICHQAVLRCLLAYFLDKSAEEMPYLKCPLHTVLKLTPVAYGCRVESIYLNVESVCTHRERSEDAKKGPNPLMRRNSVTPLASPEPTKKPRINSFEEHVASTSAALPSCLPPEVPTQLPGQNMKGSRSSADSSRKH

Row | Kd [1] [µM] | PFKFB3 bisphosphatase velocity (LC-MS/MS of F6P) with compound 4, substrate F2,6BP 20-50 µM; not significantly different from enzyme alone (nmol/min of F6P per nmol of enzyme) [2] | Binder
1 | 44 |  | SFLLR (modifications not checked) [compound 5]
2 | 18 | 0.14 | YSGFLT (modifications not checked) [compound 4]

From article PMC6937325, “Tuning PFKFB3 Bisphosphatase Activity Through Allosteric Interference” (Scientific Reports, 2019)
